Values quoted from earlier work as cited in paper PMC3556358.
pKd: −log10 of the molar value.

Target: insulin receptor (Homo sapiens) (UniProt P06213)
UniProt P06213, sequence (P06213 763-1382): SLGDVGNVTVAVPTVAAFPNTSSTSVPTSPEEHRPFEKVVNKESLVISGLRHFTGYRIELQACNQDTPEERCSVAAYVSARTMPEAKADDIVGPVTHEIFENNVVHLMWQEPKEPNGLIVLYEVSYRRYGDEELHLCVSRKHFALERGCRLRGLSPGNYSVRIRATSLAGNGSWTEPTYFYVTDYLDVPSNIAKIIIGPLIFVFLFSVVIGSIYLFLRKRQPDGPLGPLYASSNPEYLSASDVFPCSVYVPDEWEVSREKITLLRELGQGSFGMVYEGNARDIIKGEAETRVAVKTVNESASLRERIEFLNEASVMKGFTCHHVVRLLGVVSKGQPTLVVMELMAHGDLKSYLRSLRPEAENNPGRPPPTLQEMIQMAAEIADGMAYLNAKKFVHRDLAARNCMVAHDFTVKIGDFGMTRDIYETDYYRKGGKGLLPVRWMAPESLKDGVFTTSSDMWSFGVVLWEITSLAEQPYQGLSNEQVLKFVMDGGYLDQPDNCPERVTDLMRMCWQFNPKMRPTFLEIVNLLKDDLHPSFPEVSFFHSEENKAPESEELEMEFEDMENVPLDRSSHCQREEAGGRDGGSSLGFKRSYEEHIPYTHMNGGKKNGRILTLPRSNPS

insulin, sequence (P01308 90-110): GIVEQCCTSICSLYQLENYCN

pKd: 9.52
Substance: insulin (from UniProt P01308)
